Experimental data from patent publication US8304206B2, “Mass spectrometry assays for identifying compounds that activate deacetylases” (Sirtris Pharmaceuticals, Inc., priority 2005, dated 2012).
“And” between values parts separate entries of the source, which are not always exact repeats. Equal values may be shown once.

Substrate: CCCC[C@H](NC(=O)[C@H](CCCCNC(C)=O)NC(=O)[C@H](CO)NC(=O)[C@H](Cc1c[nH]cn1)NC(=O)[C@H](CO)NC(=O)[C@H](CO)NC(=O)[C@@H](NC(=O)[C@H](CO)NC(=O)[C@H](CCC(N)=O)NC(=O)CNC(=O)[C@H](CCCCNC(=O)CCCC[C@@H]1SC[C@@H]2NC(=O)N[C@@H]21)NC(=O)[C@H](CCC(=O)O)NC(=O)[C@H](CCC(=O)O)NC(C)=O)[C@@H](C)O)C(=O)N[C@@H](CO)C(=O)N[C@H](C(=O)N[C@@H](CCC(=O)O)C(=O)NCC(=O)N[C@@H](CCCCNC(=O)c1ccc2c(c1)C(=O)OC21c2ccc(N(C)C)cc2Oc2cc(N(C)C)ccc21)C(=O)N[C@@H](CCC(=O)O)C(=O)N[C@@H](CCC(=O)O)C(N)=O)[C@@H](C)O
Test: SIRT1 Km for Acetylated Peptide Substrate (mass spectrometry)
Type: biochemical, human
Conditions: pH 8.0, 25.0 °C
Procedure: Briefly, 1 μL of vehicle (DMSO) was added to each well of a Costar 96-well clear round bottom assay plate and 10 μL of 10% formic acid was added to all of the wells in row A. The Acetylated Peptide Substrate was serially diluted. Wells A2, A3, A4, A5, A6, A7, A8, A9, A10, A11 and A12 of a Costar 2 mL 96 well Assay Block were filled with 600 μL of Substrate Dilution Working Solution (SDWS; 4 mM NAD^+, 50 mM Tris HCl pH 8.0, 137 mM NaCl, 2.7 mM KCl, 1 mM MgCl2, 5 mM DTT, and 0.05% BSA). […] The APSTD-WS was serially diluted into SDWS by transferring 600 μL of APSTD-WS from well A1 to […] of the Costar 2 mL 96 well Assay Block. The solution was mixed 5 times and the process was continued by moving across row A, until well A12 was reached.
The Enzyme Working Solution (20 nM SIRT1, 50 mM Tris HCl pH 8.0, 137 mM NaCl, 2.7 mM KCl, 1 mM MgCl2, 5 mM DTT, 0.05% BSA) was prepared. […]
At 0, 3, 6, 9, 12, 15, 20, and 25 minutes, the reaction was stopped with 10% formic acid and the conversion of substrate to product was determined by mass spectrometry.
SIRT1 enzyme activity at 12 concentrations of SIRT1 Acetylated Peptide Substrate was monitored by comparing the percent conversion of Acetylated Peptide Substrate to Deacetylated Peptide Product over time. The reaction rate at each substrate concentration was determined as the slope of the product formation versus time plot in the linear range. […]

B1: SIRT1 (Homo sapiens) (protein)
chain: MADEAALALQPGGSPSAAGADREAASSPAGEPLRKRPRRDGPGLERSPGEPGGAAPEREVPAAARGCPGAAAAALWREAEAEAAAAGGEQEAQATAAAGEGDNGPGLQGPSREPPLADNLYDEDDDDEGEEEEEAAAAAIGYRDNLLFGDEIITNGFHSCESDEEDRASHASSSDWTPRPRIGPYTFVQQHLMIGTDPRTILKDLLPETIPPPELDDMTLWQIVINILSEPPKRKKRKDINTIEDAVKLLQECKKIIVLTGAGVSVSCGIPDFRSRDGIYARLAVDFPDLPDPQAMFDIEYFRKDPRPFFKFAKEIYPGQFQPSLCHKFIALSDKEGKLLRNYTQNIDTLEQVAGIQRIIQCHGSFATASCLICKYKVDCEAVRGDIFNQVVPRCPRCPADEPLAIMKPEIVFFGENLPEQFHRAMKYDKDEVDLLIVIGSSLKVRPVALIPSSIPHEVPQILINREPLPHLHFDVELLGDCDVIINELCHRLGGEYAKLCCNPVKLSEITEKPPRTQKELAYLSELPPTPLHVSEDSSSPERTSPPDSSVIVTLLDQAAKSNDDLDVSESKGCMEEKPQEVQTSRNVESIAEQMENPDLKNVGSSTGEKNERTSVAGTVRKCWPNRVAKEQISRRLDGNQYLFLPPNRYIFHGAEVYSDSEDDVLSSSSCGSNSDSGTCQSPSLEEPMEDESEIEEFYNGLEDEPDVPERAGGAGFGTDGDDQEAINEAISVKQEVTDMNYPSNKS
notes: The SirT1 gene was cloned into a T7-promoter containing vector and transformed into BL21(DE3); His-tag (N); made in house; host or cells: E. coli BL21(DE3)
Km (other: Sirt1, Mass Spectrometry, present invention): 11.6 µM | Km (other: single replicate plates, 2 mM NAD+, 1% DMSO): 11.2 µM and 11.9 µM
